Measurements taken from the supplement of paper PMC6757056.
± gives the standard deviation of the averaged measurements.

B1: library; a variant is named by its letters at N, in order (parent)
chain: GCUGUCACCGGUGCUUGGUACGUUAUAUUCAGCCGGUCUGAUGAGUCUNNNNNNAGACGAAACAGC

Key:
(6R,S)-folinic acid [1] = variants of: B1; assay: normalized RNA/DNA level without ligand (relative to sTRSVctl = 100) (log10 (% of sTRSVctl)); HEK293T overexpressing SLC46A1; higher = less ribozyme self-cleavage, higher mRNA level; details: without (6R,S)-folinic acid; ligand present: no
Summary of the method: (§1)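 RNA level was computed as RNA reads over DNA reads divided by a spiked-in non-cleaving sequence or by the top sequences, then scaled and log-transformed. Scaling was ×100 with log10, the top group was 25 sequences, and the threshold was ≥100 DNA reads. The reads came from HEK293T cells transfected at 4 µg per 6-well well with ribozyme switch library plasmids (mCherry, or eGFP in some ligand experiments). Total RNA was extracted with EDTA 72 h after transfection, with any ligand added 1 h before it.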

(6R,S)-folinic acid [2] = variants of: B1; assay: normalized RNA/DNA level with ligand (relative to sTRSVctl = 100) (log10 (% of sTRSVctl)); HEK293T overexpressing SLC46A1; ligand concentration (+) RNA-Seq: 6 mM; higher = less ribozyme self-cleavage, higher mRNA level; details: with (6R,S)-folinic acid; ligand present: yes
Summary of the method: as §1

Variant | normalized RNA/DNA level without ligand (log10) ((6R,S)-folinic acid [1]) | normalized RNA/DNA level with ligand (log10) ((6R,S)-folinic acid [2])
GUCGUG | 1.9677 ± 0.0013 | 2.04 ± 0.029
UUCGUG | 1.81 ± 0.027 | 1.99 ± 0.067
AUCGUU | 2.043 ± 0.0096 | 2.01 ± 0.036
CUCGUU | 2.0737 ± 0.0011 | 2.0492 ± 0.0012
GUCGUU | 2.029 ± 0.018 | 2.02 ± 0.056
UUCGUU | 2.009 ± 0.013 | 1.98 ± 0.042
AUCUAA | 2.0002 ± 0.0016 | 2.01 ± 0.042
CUCUAA | 1.997 ± 0.017 | 2.01 ± 0.044
GUCUAA | 1.978 ± 0.0082 | 1.991 ± 0.014
AUCUAC | 2.013 ± 0.0088 | 2.03 ± 0.039
CUCUAC | 2.0423 ± 0.0006 | 2.04 ± 0.023
GUCUAC | 2.004 ± 0.0042 | 2.02 ± 0.027
UUCUAC | 2.03 ± 0.029 | 1.98 ± 0.061
AUCUAG | 1.974 ± 0.013 | 2.021 ± 0.0074
CUCUAG | 2.001 ± 0.019 | 2.02 ± 0.083
GUCUAG | 1.97 ± 0.028 | 2.0363 ± 0.0013
AUCUAU | 2.0163 ± 0.0016 | 2.03 ± 0.041
CUCUAU | 2.012 ± 0.0028 | 2.03 ± 0.049
UUCUAU | 1.994 ± 0.0097 | 2.05 ± 0.04
AUCUCA | 2.02 ± 0.022 | 2.018 ± 0.0082

Variant | normalized RNA/DNA level without ligand (log10) ((6R,S)-folinic acid [1]) | normalized RNA/DNA level with ligand (log10) ((6R,S)-folinic acid [2])
CUCUCA | 2.05 ± 0.015 | 2.02 ± 0.057
GUCUCA | 2.0197 ± 0.0003 | 2.01 ± 0.027
UUCUCA | 2.019 ± 0.003 | 2.04 ± 0.025
AUCUCC | 2.04 ± 0.0049 | 2.03 ± 0.064
CUCUCC | 2.1 ± 0.025 | 2.07 ± 0.022
GUCUCC | 2.032 ± 0.015 | 2.024 ± 0.0098
UUCUCC | 2.083 ± 0.014 | 2.02 ± 0.038
CUCUCG | 2.05 ± 0.014 | 2.014 ± 0.0035
UUCUCG | 1.944 ± 0.0051 | 2.02 ± 0.056
AUCUCU | 2.02 ± 0.023 | 2.021 ± 0.0047
CUCUCU | 2.025 ± 0.017 | 2.019 ± 0.0069
GUCUCU | 2.0436 ± 0.00093 | 2.03 ± 0.044
UUCUCU | 2.06 ± 0.032 | 2.05 ± 0.054
AUCUGA | 2.021 ± 0.016 | 2.02 ± 0.058
CUCUGA | 2.067 ± 0.012 | 2.046 ± 0.0084
GUCUGA | 2.05 ± 0.021 | 2.05 ± 0.038
UUCUGA | 2.016 ± 0.012 | 2.032 ± 0.0073
AUCUGC | 2.06 ± 0.028 | 2.05 ± 0.052
CUCUGC | 2.02 ± 0.025 | 2.03 ± 0.027
CUCUGG | 2.04 ± 0.021 | 2.04 ± 0.028

Variant | normalized RNA/DNA level without ligand (log10) ((6R,S)-folinic acid [1]) | normalized RNA/DNA level with ligand (log10) ((6R,S)-folinic acid [2])
AUCUGU | 2.004 ± 0.0032 | 2.06 ± 0.056
CUCUGU | 2.0266 ± 0.0016 | 2.037 ± 0.0081
GUCUGU | 2.016 ± 0.0056 | 2.06 ± 0.027
UUCUGU | 2.03 ± 0.023 | 2.047 ± 0.0083
GUCUUA | 2.03 ± 0.025 | 2.034 ± 0.013
UUCUUA | 2.032 ± 0.02 | 2.02 ± 0.081
AUCUUC | 2.07 ± 0.022 | 2.05 ± 0.045
CUCUUC | 2.063 ± 0.0046 | 2.01 ± 0.024
GUCUUC | 2.073 ± 0.0035 | 2.027 ± 0.0036
UUCUUC | 2.05 ± 0.028 | 1.996 ± 0.012
CUCUUG | 2.04 ± 0.021 | 2.03 ± 0.028
UUCUUG | 1.914 ± 0.0095 | 2.02 ± 0.023
AUCUUU | 2.07 ± 0.025 | 2.087 ± 0.017
CUCUUU | 2.013 ± 0.011 | 2.02 ± 0.041
GUCUUU | 2.047 ± 0.0022 | 2.04 ± 0.064
UUCUUU | 2.047 ± 0.0094 | 2.04 ± 0.035
AUGAAC | 1.95 ± 0.004 | 1.97 ± 0.048
CUGAAC | 1.99 ± 0.035 | 1.99 ± 0.024
